# Reference: the supplement of paper PMC7877785
# ± gives the uncertainty stated by the source.
# Assay: self-splicing fitness, log relative to wild type (ln ratio); higher = more splicing; Tetrahymena group I intron in knt gene, E. coli kanamycin selection, DiMSum; sequences stand for … in CUCUCU…GGAGGGAAAAGUUAUCAGGCAUGCACCUGGUAGCUAGUCUUUAAACCAAUAGAUUGCAUCGGUUUAAAAGGCAAGACCGUCAAAUUGCGGGAAAGGGGUCAACAGCCGUUCAGUACCAAGUCUCAGGGGAAACUUUGAGAUGGCCUUGCAAAGGGUAUGGUAAUAAGCUGACGGACAUGGUCCUAACCACGCAGCCAAGUCCUAAGUCAACAGAUCUUCUGUUGAUAUGGAUGCAGUUCACAGACUAAAUGUCGGUCGGGGAAGAUGUAUUCUUCUCAUAAGAUAUAGUCGGACCUCUCCUUAAUGGGAGCUAGCGGAUGAAGUGAUGCAACACUGGAGCCGCUGGGAACUAAUUUGUAUGCGAAAGUAUAUUGAUUAGUUUUGGAGUACUCGUGGUCG
# Method in brief: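 Fitness was computed with DiMSum as the error-weighted combination of replicate fold changes, kanamycin versus none, each normalised to wild type. The library randomised all eight intron nucleotides of the P1ex region, with the intron placed in the knt kanamycin-resistance gene on pET-22b(+) in E. coli BL21(DE3). Six replicate transformations were grown overnight at 37°C or 30°C on LB agar with or without 25 μg/mL kanamycin, plus 100 μg/mL carbenicillin, 50 μM IPTG and 0.2% rhamnose. Pooled colonies were amplicon-sequenced on an Illumina HiSeq 2500.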
Sequence,self-splicing fitness (ln) (30 °C),self-splicing fitness (ln) (37 °C)
CGCCAGCAAUAUUACGUCAU,-4.39 ± 0.19,-3.12 ± 0.18
CGCCAGCAAUAUUACGUCUC,-4.51 ± 0.23,-2.45 ± 0.16
CGCCAGCAAUAUUACGUGAC,-3.64 ± 0.32,-2.96 ± 0.33
CGCCAGCAAUAUUACGUGCC,-1.13 ± 0.091,-0.673 ± 0.11
CGCGAGCAAUAUUACGACCU,-0.582 ± 0.16,-1.81 ± 0.21
CGCGAGCAAUAUUACGAUCU,-3.42 ± 0.21,-1.66 ± 0.14
CGCGAGCAAUAUUACGCCAG,-2.74 ± 0.18,-2.75 ± 0.24
CGCGAGCAAUAUUACGCCCU,-3.1 ± 0.29,-2.5 ± 0.39
CGCGAGCAAUAUUACGCGUC,-3.67 ± 0.28,-2.68 ± 0.22
CGCGAGCAAUAUUACGGACG,–,-1.75 ± 0.42
CGCGAGCAAUAUUACGGCAG,-0.761 ± 0.1,-0.243 ± 0.13
CGCGAGCAAUAUUACGGCUG,-0.795 ± 0.094,-0.637 ± 0.13
CGCGAGCAAUAUUACGGGGG,-3.45 ± 0.38,-3.07 ± 0.32
CGCGAGCAAUAUUACGUACC,–,-2.69 ± 0.35
CGCGAGCAAUAUUACGUCGA,-4.28 ± 0.46,-2.73 ± 0.24
CGCGAGCAAUAUUACGUCUA,-1.42 ± 0.17,-0.973 ± 0.26
CGCGAGCAAUAUUACGUGCU,-2.71 ± 0.14,-2 ± 0.22
CGCGAGCAAUAUUACGUGGC,-2.53 ± 0.18,-2.16 ± 0.18
CGCGAGCAAUAUUACGUUAA,-3.18 ± 0.16,-4.09 ± 0.36
CGCUAGCAAUAUUACGAAAA,-1.65 ± 0.16,-1.98 ± 0.15

Sequence,self-splicing fitness (ln) (30 °C),self-splicing fitness (ln) (37 °C)
CGCUAGCAAUAUUACGAAUA,-2.58 ± 0.19,-2.57 ± 0.23
CGCUAGCAAUAUUACGAUGA,-1.14 ± 0.1,-0.401 ± 0.087
CGCUAGCAAUAUUACGCCAU,-3.62 ± 0.3,-1.27 ± 0.27
CGCUAGCAAUAUUACGCUAC,–,-2.29 ± 0.5
CGCUAGCAAUAUUACGGACU,-0.928 ± 0.09,-1.08 ± 0.12
CGCUAGCAAUAUUACGGCCG,-1.19 ± 0.17,-1.11 ± 0.14
CGCUAGCAAUAUUACGGCUU,-0.961 ± 0.081,-0.559 ± 0.1
CGCUAGCAAUAUUACGGGAC,–,-2.63 ± 0.22
CGCUAGCAAUAUUACGGGAG,-2.79 ± 0.1,-1.43 ± 0.082
CGCUAGCAAUAUUACGGUGG,-1.71 ± 0.12,-2.3 ± 0.17
CGGAAGCAAUAUUACGAAUU,-3.28 ± 0.36,-2.77 ± 0.44
CGGAAGCAAUAUUACGACCC,-0.496 ± 0.27,-0.781 ± 0.33
CGGAAGCAAUAUUACGAGAU,–,-2.18 ± 0.33
CGGAAGCAAUAUUACGAGGG,-0.374 ± 0.41,–
CGGAAGCAAUAUUACGAUGG,-0.404 ± 0.096,0.233 ± 0.13
CGGAAGCAAUAUUACGCCGC,-2.96 ± 0.28,-2.51 ± 0.35
CGGAAGCAAUAUUACGGCGC,-1.89 ± 0.37,-0.448 ± 0.28
CGGAAGCAAUAUUACGGGAA,-3.16 ± 0.46,-2.3 ± 0.28
CGGAAGCAAUAUUACGGGGG,-3.72 ± 0.13,-3.16 ± 0.13
CGGAAGCAAUAUUACGGUCA,-0.599 ± 0.078,0.421 ± 0.08
